Substitutions are numbered along the chain they refer to. In names and notes the source's numbering stands.

Assay [1] addresses JGFN4 wild-type VHH (camelid (library from B cells of llamas and alpacas)). Kind of assay: crystal structure; crystals grown from the isolated monomeric species (~12 mg/ml) with 5-fold molar excess of fentanyl; sitting drop, ambient temperature.
Assay [2] shares this target. The assay can be described thus: crystal structure; crystals grown from the isolated (preformed) dimeric species (~12 mg/ml) with 5-fold molar excess of fentanyl; sitting drop, ambient temperature.
In assay [3] the target is JGFN4 N76D VHH (camelid (library from B cells of llamas and alpacas)). The description is as above.

B1: JGFN4 wild-type VHH (VHH)
VHH: QVQLVESGGGLAQAGGSLQLSCAASGSTSRVNAMGWYRQTPGKERELVAAIDRSGATVYSESVRGRFTISKNDAKNIVWLQMNNLTTEDTAVYYCRSGVLGSWGLGTQVTVSS
On to B1, for which the stoichiometry N in assay [1] and in assay [2] was 2 each time.

B2: JGFN4 N76D VHH (VHH)
VHH: B1 VHH with N76D
In turn, B2 yielded a stoichiometry N in assay [3] of 2.

As usually defined, the stoichiometry N is a count of units in the complex or per binding partner.

For the origin of these results see publication PMC11321312.
